From patent US20030182691A1

Experiments:
[1] = biological target: T1, papain (cysteine protease) (UniProt P00784); assay: phage ELISA, papain coated in well, phage diluted 1 in 100, anti-M13/HRP detection
T1 sequence (looked up): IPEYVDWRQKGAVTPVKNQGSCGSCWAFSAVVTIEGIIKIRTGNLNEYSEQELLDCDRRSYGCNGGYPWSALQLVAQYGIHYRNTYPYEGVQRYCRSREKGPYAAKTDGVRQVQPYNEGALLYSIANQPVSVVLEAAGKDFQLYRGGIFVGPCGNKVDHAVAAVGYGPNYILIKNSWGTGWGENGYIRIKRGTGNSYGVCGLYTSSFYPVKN

[2] = biological target: trypsin (serine protease); assay: phage ELISA, trypsin coated in well, phage diluted 1 in 100, anti-M13/HRP detection
[3] = biological target: T1, papain (cysteine protease); assay: cell-based or functional assay
[4] = biological target: T2, POV-1 protein: Brassica napus Sta 44G(2) / Onchocerca volvulus OV7 protease inhibitor translational fusion, P22085
T2 chain: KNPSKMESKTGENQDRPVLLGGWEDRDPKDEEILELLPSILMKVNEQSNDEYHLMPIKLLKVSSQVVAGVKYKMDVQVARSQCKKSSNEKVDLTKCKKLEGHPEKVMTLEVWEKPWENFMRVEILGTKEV

[5] = biological target: T3, OV7/GST (cysteine protease inhibitor OV7 conjugated to GST), P22085
T3 chain: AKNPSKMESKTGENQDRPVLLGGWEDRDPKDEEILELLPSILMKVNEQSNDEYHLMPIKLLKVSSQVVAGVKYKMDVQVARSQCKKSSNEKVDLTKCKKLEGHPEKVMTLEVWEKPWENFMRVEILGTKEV

[6] = biological target: POP-1 protein: Brassica napus Sta 44G(2) / Sitophilus zeamais SCPc1 protease translational fusion (Brassica napus; Sitophilus zeamais); assay: cell-based or functional assay

“M13 wild type or control phage not displaying any foreign protein” showed an O.D.410 (O.D. at 410 nm) [1] of 0.043 and an O.D.410 (O.D. at 410 nm) [2] of 0.026.

B1: recombinant onchocystatin (OV7), cysteine protease inhibitor (protein)
chain: T3 chain
Molecule B1 has an Average Pollen Tube Length (tobacco pollen in vitro, 42 µM papain + 30 µM onchocystatin) [3] of 80 µm and a Pollen Germination (tobacco pollen in vitro, 42 µM papain + 30 µM onchocystatin) [3] of 69%.

B2: papain (cysteine protease) (protein)
chain: T1 sequence (looked up)
With B2 the “percentage of papain protease activity (substrate Pyr-Phe-Leu-pNA, 410 nm) relative to the non-transformed control plant extract” value [4] was 53% to 61% and the “percentage of papain protease activity (substrate Pyr-Phe-Leu-pNA, 410 nm) relative to the non-transformed control plant extract” value [5] was 2%.

B3: POV-1 protein: Brassica napus Sta 44G(2) / Onchocerca volvulus OV7 protease inhibitor translational fusion (protein)
chain: T2 chain
B3 was tested, and the Percent Loss of Viability (Alexander staining of pollen, F1 plant POP 2 X POV 20 No. 2) [6] was 19%, the Percent Loss of Viability (Alexander staining of pollen, F1 plant POP 2 X POV 20 No. 3) [6] was 21% and the Percent Loss of Viability (Alexander staining of pollen, F1 plant POP 12 X POV 20 No. 1) [6] was 66%. It also gave a Percent Loss of Viability (Alexander staining of pollen, F1 plant POP 12 X POV 20 No. 4) [6] of 58%, a Percent Loss of Viability (Alexander staining of pollen, F1 plant POP 12 X POV 25 No. 1) [6] of 26% and a Percent Loss of Viability (Alexander staining of pollen, F1 plant POP 12 X POV 25 No. 2) [6] of 19%.
